Values quoted from earlier work in paper doi:10.1101/2021.06.28.450170.

How the values were obtained:
Cys797 = Cys797 (UniProt position 797, LMPFGCLLDYV); assay: chemical modification
Cys481 = Cys481 (UniProt position 481, YMANGCLLNYL)
Cys442 = Cys442 (UniProt position 442, FMEHGCLSDYL)

For “Epidermal growth factor receptor (EGFR) kinase (Homo sapiens)”, the pKa (Cys797) is listed as 5.5.

In the case of “Bruton's tyrosine kinase (BTK) (Homo sapiens)”, the pKa (Cys481) is listed as 7.7.

In the case of “Interleukin-2-inducible T-cell kinase (ITK) (Homo sapiens)”, the pKa (Cys442) is given as 8.5.
